Assay results as given in US20070190061A1.

Biological target: HMW-MAA-specific idiotypic mAb 763.74
Test: peptide concentration giving 50% inhibition of biotinylated mAb 763.74 binding to Colo38 cells, cell ELISA

Row | IC50 | Binder
1 | 871 nM | ARSNYVGYHVRWYFD [peptide PMK2-23H3 (anti-id mAb MK2-23 H3-derived peptide)]
2 | 900 nM | IRSGDEVHYHVTAGPRW [peptide PHMW-MAA.D2.7 (HMW-MAA-derived peptide)]
